Measurements as given in patent US20260193376A1 (Novo Nordisk, published 2026).
Changes are numbered by the printed parent chain.

B1: 224F3 (mAb01-1582) (antibody, V domains shown)
VH: QVQMQQSGAELVKPGASVKLSCKASGYTFTSQDINWVRQRPEQGLEWIGWIFPGDGSTKYNEKLKGKATLTTDKSSSTAFMQLSRLTSEDSAVYFCARSAYYRYDGSYYYAMDYWGQGTSVTVSS
VL: QIVLTQSPAIMSASLGEEITLTCSASSSVSYMLWYQQKSGTSPKLLIYTTSNLASGVPSRFSGTGSGTFYSLTISSVEAEDAADYYCHQWSSYPRTFGGGTKLEIKR
B2: bimAb05-3761 (bispecific antibody, V domains shown)
VH 1: EVQLVESGGGLVQPGRSLKLSCAASGFTFDDYAMHWVRQVPGKGLEWVSGISWKGDIGGYVDSVKGRFTISRDNAKNSLYLQLNSLRAEDTALYYCAKSYGSGSFYNAFDSWGQGTLVTVSS
VL 1: DIQMTQSPSTLSASAGDEVTITCRASQSISSWLAWYQQKPGKAPKLLIYKASKLDRGVPSRFSGSGSGTEFSLTISDLQPDDFATYYCLEYSSYIRTFGQGTKVEIK
VH 2: EVQLVQSGAEVKKPGESLRISCKGSGYSFSTSWIVWVRQMPGKGLEWMGMIDPSDSFTSYSPSFQGHVTISADKSISTAYLQWSSLKASDTAMYYCARLHYYNSEEFDVWGQGTLVTVSS
VL 2: EIVLTQSPGTLSLSPGERATLSCRASQSVSSSYLAWYQQKPGQAPRLLIYGQSSRTRGIPDRFSGSGSGTDFTLTISRLEPEDFAVYYCQQFGDSQLFTFGQGTKLEIK
B3: bimAb05-2113 (bispecific antibody, V domains shown)
VH 1: B2 VH 1
VL 1: B2 VL 1
VH 2: B2 VH 2 with V35S, F57Y, L115M
VL 2: B2 VL 2 with F92Y
B4: mAb01-9994 (antibody, V domains shown)
VH: B2 VH 1 with K19R, D30H, A75E, L83M, A97V
VL: B2 VL 1 with A15V, E18R, L46F, K53R, V58T, D77S
notes: Bivalent IgG
B5: bimAb05-3769 (bispecific antibody, V domains shown)
VH 1: B2 VH 1 with K19R, D30H, K54R, D62K, L83M, A97V
VL 1: B2 VL 1 with A15V, E18R, L46F, D55E, V58T, D77S
VH 2: B2 VH 2
VL 2: B2 VL 2
B6: bimAb05-2115 (bispecific antibody, V domains shown)
VH 1: B2 VH 1 with K19R, D30H, A75E, L83M, A97V
VL 1: B2 VL 1 with A15V, E18R, K53R, D55E, V58T, D77S
VH 2: B2 VH 2 with V35S, F57Y, L115M
VL 2: B2 VL 2 with F92Y
B7: bimAb05-3755 (bispecific antibody, V domains shown)
VH 1: B2 VH 1 with K19R, D30H, A75E, L83M, A97V
VL 1: B2 VL 1 with A15V, E18R, L46F, K53R, V58T, D77S
VH 2: B2 VH 2 with S30T, N103H
VL 2: B2 VL 2 with Q52A, T56A, D94S, Q96R
B8: bimAb05-0746 (bispecific antibody, V domains shown)
VH 1: B2 VH 1 with K19R, D30H, A75E, L83M, A97V
VL 1: B2 VL 1 with A15V, E18R, K53R, D55E, V58T, D77S
VH 2: B2 VH 2
VL 2: B2 VL 2
B9: bimAb05-2112 (bispecific antibody, V domains shown)
VH 1: B2 VH 1 with K19R, D30H, A75E, L83M, A97V
VL 1: B2 VL 1 with A15V, E18R, L46F, K53R, V58T, D77S
VH 2: B2 VH 2 with V35S, F57Y, L115M
VL 2: B2 VL 2 with F92Y
B10: mAb01-9978 (antibody, V domains shown)
VH: B2 VH 1 with K19R, D30H, A75E, L83M, A97V
VL: B2 VL 1 with A15V, E18R, K53R, D55E, V58T, D77S
notes: Bivalent IgG
B11: bimAb05-2114 (bispecific antibody, V domains shown)
VH 1: B2 VH 1 with K19R, D30H, K54R, D62K, L83M, A97V
VL 1: B2 VL 1 with A15V, E18R, L46F, D55E, V58T, D77S
VH 2: B2 VH 2 with V35S, F57Y, L115M
VL 2: B2 VL 2 with F92Y
B12: mAb01-8913 (antibody, V domains shown)
VH: B2 VH 2
VL: B2 VL 2 with P15A, Q52A, T56A, D94S, Q96R
notes: Bivalent IgG
B13: mAb01-9772 (antibody, V domains shown)
VH: B2 VH 2 with V35S, F57Y, L115M
VL: B2 VL 2 with F92Y
notes: Bivalent IgG
B14: mAb01-9933 (antibody, V domains shown)
VH: B2 VH 1
VL: B2 VL 1
notes: Bivalent IgG
B15: mAb01-9985 (antibody, V domains shown)
VH: B2 VH 1 with K19R, D30H, K54R, D62K, L83M, A97V
VL: B2 VL 1 with A15V, E18R, L46F, D55E, V58T, D77S
notes: Bivalent IgG

Key:
[1] = molecular target: T1, randomly biotinylated human FIXa (human, UniProt P00740 47-191; P00740 227-461, randomly biotinylated (NHS-d-biotin)); assay: BLI (Octet) in-tandem binning on biotinylated FIXa, 330 nM each; competitor (1st antibody): 224F3
T1 sequence (P00740 47-191, chain 1 of 2): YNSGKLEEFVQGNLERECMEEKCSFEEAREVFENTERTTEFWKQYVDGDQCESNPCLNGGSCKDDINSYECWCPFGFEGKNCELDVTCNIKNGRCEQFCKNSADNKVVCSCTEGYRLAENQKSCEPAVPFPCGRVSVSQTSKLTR
T1 sequence (P00740 227-461, chain 2 of 2): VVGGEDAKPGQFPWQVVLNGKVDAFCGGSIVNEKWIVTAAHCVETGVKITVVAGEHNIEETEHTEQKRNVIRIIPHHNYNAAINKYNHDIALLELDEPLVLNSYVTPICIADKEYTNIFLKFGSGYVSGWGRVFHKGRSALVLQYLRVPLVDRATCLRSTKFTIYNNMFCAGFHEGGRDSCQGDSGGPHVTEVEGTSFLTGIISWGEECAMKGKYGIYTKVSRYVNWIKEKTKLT
Description: (§1) Binning experiments were performed using Octet fortebio systems (HTX, Red384), based on the principle of Bio-Layer Interferometry, and equipped with streptavidin sensors (Pall Life Sciences, Menlo Park, CA), and using 8-channel mode. The binning assays were performed using a modified in-tandem setup. Briefly, (1) 370 nM randomly biotinylated human FIXa (biotinylated using NHS-d-biotin from Sigma H1759 and human FIXa obtained from Haematologic Technologies, Essex Junction, VT) was captured by streptavidin tips (dip and read biosensors Part NO:18-5019, Pall Life Sciences, Menlo Park, CA) for 5 minutes, (2) 330 nM of a first bivalent anti-FIXa antibody was then offered to the streptavidin tips, and incubated for 10 minutes until the biotinylated FIXa were fully saturated and (3) the tips were then offered to an equimolar solution of 330 nM of the first antibody and 330 nM of a second bivalent anti-FIXa antibody for 5 minutes. […] Unspecific binding were evaluated by including an unrelated human IgG4 bivalent antibody as first and second antibody control.

[2] = molecular target: T1, randomly biotinylated human FIXa; assay: BLI (Octet) in-tandem binning on biotinylated FIXa, 330 nM each; competitor (1st antibody): mAb01-1767
Description: as §1

[3] = molecular target: T1, randomly biotinylated human FIXa; assay: BLI (Octet) in-tandem binning on biotinylated FIXa, 330 nM each; competitor (1st antibody): mAb01-2434
Description: as §1

[4] = molecular target: T1, randomly biotinylated human FIXa; assay: BLI (Octet) in-tandem binning on biotinylated FIXa, 330 nM each; competitor (1st antibody): hIgG4 (control)
Description: as §1

[5] = molecular target: T2, human plasma-derived Factor IXa (human, UniProt P00740 47-191; P00740 227-461); assay: cell-based or functional assay
T2 sequence (P00740 47-191, chain 1 of 2): as the sequence (P00740 47-191, chain 1 of 2) above
T2 sequence (P00740 227-461, chain 2 of 2): as the sequence (P00740 227-461, chain 2 of 2) above

[6] = molecular target: T3, human coagulation Factor IX (human, UniProt P00740 47-461); assay: ITC, 37 °C, pH 7.4, antibody injected into FIX
T3 construct: also called FIX
T3 sequence (P00740 47-461 T194A limits assumed): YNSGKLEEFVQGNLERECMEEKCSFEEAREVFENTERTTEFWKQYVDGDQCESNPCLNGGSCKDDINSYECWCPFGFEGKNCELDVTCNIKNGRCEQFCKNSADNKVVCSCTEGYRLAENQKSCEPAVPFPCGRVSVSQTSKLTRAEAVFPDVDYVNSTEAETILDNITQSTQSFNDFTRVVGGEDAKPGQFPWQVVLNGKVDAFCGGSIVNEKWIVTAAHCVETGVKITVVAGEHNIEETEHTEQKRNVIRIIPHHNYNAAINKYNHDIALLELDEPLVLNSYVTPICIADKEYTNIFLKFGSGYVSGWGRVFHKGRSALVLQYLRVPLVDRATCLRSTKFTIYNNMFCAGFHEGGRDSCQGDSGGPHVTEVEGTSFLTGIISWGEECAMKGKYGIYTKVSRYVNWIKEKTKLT
Description: (§2) Binding affinities for anti-FIX(a) and anti-FX(a) antibodies were measured by isothermal titration calorimetry […] by using a PEAQ-ITC calorimeter (Malvern, UK). The experiments were conducted at 37° C. and pH 7.4 using 25 mM Tris, 150 mM NaCl, 5 mM CaCl₂ (Tris-buffer). The sample cell (200 μl) contained either FIX, FIXa, or FX (macromolecule) and anti-FIX(a) and anti-FX(a) antibodies (ligand) were injected via a syringe (40 μl). All proteins were extensively dialyzed in Tris-buffer prior to measurements to secure matched buffer conditions. A thermal equilibration step was followed by a 60 s delay and subsequently an initial 0.2 μl injection of antibody, followed by 12-16 injections of 1.5-3 μl of antibody at an interval of 120 s. The stirring speed was maintained at 750 rpm, and the reference power is kept constant at 5-10 μcal/s. The heat associated with each injection of antibody is integrated and plotted against the molar ratio of ligand to macromolecule. The resulting isotherm is fitted to a one-site binding model to obtain the affinity (KD), stoichiometry (n), and enthalpy of interaction (ΔH) using the software provided by the manufacturer. Experiments were performed in at least duplicates.

[7] = molecular target: T2, human plasma-derived Factor IXa; assay: ITC, 37 °C, pH 7.4, antibody injected into FIXa
Description: as §2

[8] = molecular target: T4, human coagulation Factor X (human, UniProt P00742 41-179; P00742 183-488); assay: ITC, 37 °C, pH 7.4, antibody injected into FX
T4 construct: also called FX
T4 sequence (P00742 41-179, chain 1 of 2): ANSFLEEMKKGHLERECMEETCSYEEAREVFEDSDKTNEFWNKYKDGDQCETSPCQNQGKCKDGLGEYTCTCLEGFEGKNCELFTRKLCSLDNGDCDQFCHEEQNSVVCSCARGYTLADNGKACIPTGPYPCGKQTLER
T4 sequence (P00742 183-488, chain 2 of 2): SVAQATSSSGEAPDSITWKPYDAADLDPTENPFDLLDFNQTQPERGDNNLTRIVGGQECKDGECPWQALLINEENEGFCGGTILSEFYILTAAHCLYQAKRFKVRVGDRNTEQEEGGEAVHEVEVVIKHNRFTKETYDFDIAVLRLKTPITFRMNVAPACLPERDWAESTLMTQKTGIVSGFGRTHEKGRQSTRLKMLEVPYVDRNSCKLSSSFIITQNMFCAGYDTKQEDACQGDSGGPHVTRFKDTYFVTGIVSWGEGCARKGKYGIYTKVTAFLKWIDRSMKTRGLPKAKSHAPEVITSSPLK
Description: as §2

Row | Binder | interferometry response value [1] | interferometry response value [2] | interferometry response value [3] | interferometry response value [4] | also measured
1 | B1 | 0.11 | 1.6 | 1.69 | 2.11 | –
2 | B2 | – | – | – | – | Maximum stimulation (fold), FXa generation assay with bispecific antibody; maximum at 2690 nM [5]: 16300 fold
3 | B3 | – | – | – | – | Maximum stimulation (fold), FXa generation assay with bispecific antibody; maximum at 7600 nM [5]: 26300 fold
4 | B4 | 0.4 | 0.01 | 0.56 | 0.75 | Kd [6]: 2480 nM; Kd [7]: 1800 nM
5 | B5 | – | – | – | – | Maximum stimulation (fold), FXa generation assay with bispecific antibody; maximum at 8170 nM [5]: 27400 fold
6 | B6 | – | – | – | – | Maximum stimulation (fold), FXa generation assay with bispecific antibody; maximum at 7790 nM [5]: 14900 fold
7 | B7 | – | – | – | – | Maximum stimulation (fold), FXa generation assay with bispecific antibody; maximum at 156 nM [5]: 7570 fold
8 | B8 | – | – | – | – | Maximum stimulation (fold), FXa generation assay with bispecific antibody; maximum at 3717 nM [5]: 14600 fold
9 | B9 | – | – | – | – | Maximum stimulation (fold), FXa generation assay with bispecific antibody; maximum at 7820 nM [5]: 30400 fold
10 | B10 | 0.24 | 0.01 | 0.34 | 0.4 | Kd [6]: 5600 nM; Kd [7]: 3570 nM
11 | B11 | – | – | – | – | Maximum stimulation (fold), FXa generation assay with bispecific antibody; maximum at 7580 nM [5]: 35200 fold
12 | B12 | – | – | – | – | Kd [8]: 350 nM
13 | B13 | – | – | – | – | Kd [8]: 1370 nM
14 | B14 | 0.34 | 0.02 | 0.46 | 0.59 | Kd [6]: 2390 nM; Kd [7]: 1300 nM
15 | B15 | 0.44 | 0.02 | 0.6 | 0.83 | Kd [6]: 1920 nM; Kd [7]: 1260 nM
